{"source": "patent US20230136228A1", "about": "(LAMKAP BIO ALPHA, published 2023)", "binders": {"B1": {"name": "AB17L3-1/N (bispecific antibody, human IgG1, kappa, lambda, L234A L235A)", "heavy": "EVQLVESGGGLVQPGGSLKLSCAASGFTFNTYAMNWVRQAPGKGLEWVGRIRSKYNNYATYYADSVKDRFTISRDDSKNTAYLQMNSLKTEDTAVYYCVRHGNFGNSYVSWFAYWGQGTLVTVSSASTKGPSVFPLAPSSKSTSGGTAALGCLVKDYFPEPVTVSWNSGALTSGVHTFPAVLQSSGLYSLSSVVTVPSSSLGTQTYICNVNHKPSNTKVDKRVEPKSCDKTHTCPPCPAPEAAGGPSVFLFPPKPKDTLMISRTPEVTCVVVDVSHEDPEVKFNWYVDGVEVHNAKTKPREEQYNSTYRVVSVLTVLHQDWLNGKEYKCKVSNKALAAPIEKTISKAKGQPREPQVYTLPPSREEMTKNQVSLTCLVKGFYPSDIAVEWESNGQPENNYKTTPPVLDSDGSFFLYSKLTVDKSRWQQGNVFSCSVMHEALHNHYTQKSLSLSPG", "light 1": "EIVLTQSPATLSLSPGERATLSCRASQSVNSNLNWYQQKPGQAPRLLIYHGSNRATGIPARFSGSGSGTDFTLTISSLEPEDFAVYYCQQFDYFKEHNTFGQGTKVEIKRTVAAPSVFIFPPSDEQLKSGTASVVCLLNNFYPREAKVQWKVDNALQSGNSQESVTEQDSKDSTYSLSSTLTLSKADYEKHKVYACEVTHQGLSSPVTKSFNRGEC", "light 2": "QTVVTQEPSLTVSPGGTVTLTCRSSTGAVTTSNYANWFQQKPGQAPRGLIGGTNKRAPGTPARFSGSLLGGKAALTLSGAQPEDEAEYYCALWYKQRWVFGGGTKLTVLGQPKAAPSVTLFPPSSEELQANKATLVCLISDFYPGAVTVAWKADSSPVKAGVETTTPSKQSNNKYAASSYLSLTPEQWKSHRSYSCQVTHEGSTVEKTVAPTECS", "notes": "Kappa-lambda body, lead optimization wave 1"}, "B2": {"name": "AB1L3-1/N (bispecific antibody, human IgG1, kappa, lambda, L234A L235A)", "heavy": "B1 heavy", "light 1": "B1 light 1 with Y93L, F94R, K95H", "light 2": "B1 light 2", "notes": "Kappa-lambda body: common heavy chain (hIgG1 L234A+L235A+P329A), kappa CEA light chain AB1, lambda CD3 light chain L3-1 (1A4); also called parental KL bispecific antibody"}, "B3": {"name": "AB71L3-1/N (bispecific antibody, human IgG1, kappa, lambda, L234A L235A)", "heavy": "B1 heavy", "light 1": "B1 light 1 with G51S, A55P, T56H", "light 2": "B1 light 2", "notes": "Kappa-lambda body, lead optimization wave 2"}, "B4": {"name": "AB72L3-1/N (bispecific antibody, human IgG1, kappa, lambda, L234A L235A)", "heavy": "B1 heavy", "light 1": "B1 light 1 with G51S, S52T, A55P, T56R, H97Y", "light 2": "B1 light 2", "notes": "as for B3"}, "B5": {"name": "AB73L3-1/N (bispecific antibody, human IgG1, kappa, lambda, L234A L235A)", "heavy": "B1 heavy", "light 1": "B1 light 1 with G51S, S52N, A55P, T56H, K95R, H97Y", "light 2": "B1 light 2", "notes": "as for B3"}}, "note": "Changes are numbered by the printed parent chain. Names and notes keep the numbering of the source.", "data": [{"target": "T1, human CEACAM4 (human, UniProt O75871 36-244)", "T1 construct": "whole, on cells", "T1 sequence (looked up)": "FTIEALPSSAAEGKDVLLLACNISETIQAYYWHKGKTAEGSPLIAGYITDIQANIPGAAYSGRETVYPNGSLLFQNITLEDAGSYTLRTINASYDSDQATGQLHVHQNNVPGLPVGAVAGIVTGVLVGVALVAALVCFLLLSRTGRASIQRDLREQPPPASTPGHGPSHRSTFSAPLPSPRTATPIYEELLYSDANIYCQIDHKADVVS", "assay": "flow cytometry, MFI on transfected PEAK cells divided by MFI on WT PEAK cells", "procedure": "(§1) Similarly, vectors encoding the full-length version of cyno CEACAM 5 and 6 are also used to express these proteins at the surface of PEAK and/or CHO cells. Non-transfected PEAK and/or CHO cells are used as negative control. Cells are harvested, counted, checked for viability and resuspended at 3×10⁶ cells/ml in FACS buffer (PBS 2% BSA, 0.1% NaN₃). 100 μl of the cell suspension are distributed in V-bottom 96-well plates (3×10⁵ cells/well). The supernatant is removed by centrifugation 3 minutes at 4° C., 1300 rpm and the cells incubated for 15 minutes at 4° C. with increasing concentrations of the antibody according to the invention. The antibodies carrying the anti-CEACAM5 arms to test are diluted in FACS buffer and the concentration range is 30 pM-500 nM. Cells are washed twice with cold FACS buffer and re-incubated for further 15 minutes at 4° C. with a compatible anti-human IgG secondary antibody. Cells are washed twice with cold FACS buffer and resuspended in 300 μl FACS buffer with 1:1500-diluted TOPRO-3 (Invitrogen). Fluorescence is measured using a FACSCalibur™ (BD Biosciences) or a Cytoflex Platform (Beckman Coulter). Dose-response binding curves are fitted using GraphPad Prism8 software. In the same manner, CEACAM1, CEACAM6 and other CEACAMs can be characterized.\n(§2) For the bispecific antibodies AB17L3-1/N, AB71L3-1/N, AB72L3-1/N, AB73L3-1/N the MFI measured for binding to CEACAM5 transfected cells was found between 29000 and 41000 (Table 2). In contrast MFI found by using PEAK cells transfected with CEACAM 1,3,4,6,8 were found below 1000 with the only exception of a strong signal for AB72L3-1/N on CEACAM8 transfected cells. When MFI values obtained on transfected cells expressing any given CEACAM are divided by the values obtained on WT PEAK cells, “factors to PEAK WT” can be calculated (Table 3). With the exception of AB72L3-1/N, the antibodies of the invention are all specific to CEACAM5, as the “factor to PEAK WT” values are all below 2.0.", "units": {"Factor to PEAK WT": "fold"}, "values": [{"binder": "B1", "Factor to PEAK WT": 0.8}, {"binder": "B2", "Factor to PEAK WT": 0.7}, {"binder": "B3", "Factor to PEAK WT": 0.7}, {"binder": "B4", "Factor to PEAK WT": 0.8}, {"binder": "B5", "Factor to PEAK WT": 0.7}]}, {"target": "T2, human CEACAM5 (carcinoembryonic antigen, CEA), cell surface (human, UniProt P06731 35-685)", "T2 construct": "whole, on cells; also called CD66e", "T2 sequence (looked up)": "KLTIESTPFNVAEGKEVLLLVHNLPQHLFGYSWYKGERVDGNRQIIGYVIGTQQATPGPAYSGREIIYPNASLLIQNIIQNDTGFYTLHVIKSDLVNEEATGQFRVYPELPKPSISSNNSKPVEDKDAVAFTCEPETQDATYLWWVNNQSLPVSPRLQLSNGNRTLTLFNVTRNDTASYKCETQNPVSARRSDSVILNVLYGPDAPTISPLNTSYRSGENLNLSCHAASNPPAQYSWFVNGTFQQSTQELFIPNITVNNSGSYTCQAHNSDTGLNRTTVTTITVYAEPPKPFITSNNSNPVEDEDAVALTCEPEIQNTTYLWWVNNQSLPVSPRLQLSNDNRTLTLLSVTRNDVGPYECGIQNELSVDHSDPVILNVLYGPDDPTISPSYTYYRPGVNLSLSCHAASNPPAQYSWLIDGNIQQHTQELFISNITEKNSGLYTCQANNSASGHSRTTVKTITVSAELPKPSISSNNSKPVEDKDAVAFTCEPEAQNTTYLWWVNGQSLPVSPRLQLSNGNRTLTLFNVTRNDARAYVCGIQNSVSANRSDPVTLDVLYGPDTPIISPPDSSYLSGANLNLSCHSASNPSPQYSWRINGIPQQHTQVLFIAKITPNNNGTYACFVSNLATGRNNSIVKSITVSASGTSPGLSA", "assay": "flow cytometry, MFI on transfected PEAK cells divided by MFI on WT PEAK cells", "procedure": "as §1, §2", "units": {"Factor to PEAK WT": "fold"}, "values": [{"binder": "B1", "Factor to PEAK WT": 55.1}, {"binder": "B2", "Factor to PEAK WT": 16.8}, {"binder": "B3", "Factor to PEAK WT": 79.7}, {"binder": "B4", "Factor to PEAK WT": 85.3}, {"binder": "B5", "Factor to PEAK WT": 70.8}]}, {"target": "T3, human CEACAM3 (human, UniProt P40198 35-252)", "T3 construct": "whole, on cells", "T3 sequence (looked up)": "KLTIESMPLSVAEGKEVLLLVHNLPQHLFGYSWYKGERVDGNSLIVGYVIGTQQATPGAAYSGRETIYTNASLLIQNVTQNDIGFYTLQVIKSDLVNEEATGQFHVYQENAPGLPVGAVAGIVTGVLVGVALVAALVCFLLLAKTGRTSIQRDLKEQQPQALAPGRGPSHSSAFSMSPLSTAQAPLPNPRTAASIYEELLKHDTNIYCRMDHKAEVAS", "assay": "flow cytometry, MFI on transfected PEAK cells divided by MFI on WT PEAK cells", "procedure": "as §1, §2", "units": {"Factor to PEAK WT": "fold"}, "values": [{"binder": "B1", "Factor to PEAK WT": 1.2}, {"binder": "B2", "Factor to PEAK WT": 0.8}, {"binder": "B3", "Factor to PEAK WT": 0.8}, {"binder": "B4", "Factor to PEAK WT": 1}, {"binder": "B5", "Factor to PEAK WT": 0.9}]}, {"target": "T4, human CEACAM1 (human, UniProt P13688 35-526)", "T4 construct": "whole, on cells", "T4 sequence (looked up)": "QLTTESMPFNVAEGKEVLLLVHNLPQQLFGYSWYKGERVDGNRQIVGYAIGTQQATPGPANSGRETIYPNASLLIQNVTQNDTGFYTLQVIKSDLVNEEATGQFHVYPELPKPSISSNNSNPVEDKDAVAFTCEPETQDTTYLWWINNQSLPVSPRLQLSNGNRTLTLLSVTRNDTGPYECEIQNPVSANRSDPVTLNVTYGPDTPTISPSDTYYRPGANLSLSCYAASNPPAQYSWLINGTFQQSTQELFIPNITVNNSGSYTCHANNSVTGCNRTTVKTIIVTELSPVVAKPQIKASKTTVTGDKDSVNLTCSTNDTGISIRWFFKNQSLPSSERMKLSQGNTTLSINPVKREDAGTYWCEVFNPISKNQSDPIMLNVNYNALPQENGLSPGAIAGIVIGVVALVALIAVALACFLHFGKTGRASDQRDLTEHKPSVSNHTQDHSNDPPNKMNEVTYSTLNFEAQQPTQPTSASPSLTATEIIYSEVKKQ", "assay": "flow cytometry, MFI on transfected PEAK cells divided by MFI on WT PEAK cells", "procedure": "as §1, §2", "units": {"Factor to PEAK WT": "fold"}, "values": [{"binder": "B1", "Factor to PEAK WT": 1.2}, {"binder": "B2", "Factor to PEAK WT": 1}, {"binder": "B3", "Factor to PEAK WT": 1}, {"binder": "B4", "Factor to PEAK WT": 1.4}, {"binder": "B5", "Factor to PEAK WT": 1.1}]}]}
